# B1: S1 scramble (ssDNA)
# DNA: GCCTGTTGTGAGCCTCCTGTCGAAGGGGATGGACCCCTACTTCATTCGCCCGCCTTGAGCGTTTATTCTTGTCTCCC
# Molecular target: T1, FAM-αC-conotoxin PrXA (Conus parius, UniProt P0C8S5 52-83)
# T1 chain: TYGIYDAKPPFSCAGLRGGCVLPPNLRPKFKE
# Assay: fluorescence anisotropy; no anisotropy change
# Conditions: tags: 5,6-carboxyfluorescein (FAM)
binder,measurement,value
B1,binding result,no binding

# Reference: article PMC5543128
